{"source": "the RNAGym collection of RNA variant scans (doi:10.1073/pnas.2313332121)", "parents": {"B1": {"name": "TPR 5TU (parent)", "chain": "GGAUCUUCUCGAUCUAACAAAAAAGACAAAUCUGCCACAAAGCUUGAGAGCAUCUUCGGAUGCAGAGGCGGCAGCCUUCGGUGGCGCGAUAGCGCCAACGUUCUCAACUAUGACACGCAAAACGCGUGCUCCGUUGAAUGGAGUUUAUCAUG"}}, "note": "Fewer inactive variants are shown than the library holds.", "data": [{"variants_of": "B1", "experiment": "polymerase ribozyme fitness, log enrichment relative to wild type (log ratio); higher = more active; in vitro selection for triplet polymerase activity", "how_it_was_run": "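Streptavidin-bead capture of gel-excised extended constructs, followed by RT-PCR, closed a single triplicate in vitro selection round. That round began by annealing PCR-built, transcribed mutant libraries of each subunit of a heterodimeric triplet polymerase ribozyme with a biotinylated primer, the partner subunit and triplets, then incubating them frozen at −7 °C. After Illumina sequencing of inputs and outputs, genotypes needed ≥10 input reads and ≥1 read per output. Fitness is the base-2 logarithm of genotype enrichment over wild-type enrichment, using inverse-variance-weighted replicate averages.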", "values": [{"variant": "A47U C96A G126A C129A A137U", "polymerase ribozyme fitness (log ratio)": "≤ -4.2"}, {"variant": "U45G A137C", "polymerase ribozyme fitness (log ratio)": -4.14}, {"variant": "U45G C116U", "polymerase ribozyme fitness (log ratio)": 0.00932}, {"variant": "G46U A47C G58U C108U A119U G128U", "polymerase ribozyme fitness (log ratio)": "≤ -4.2"}, {"variant": "G46U C99U", "polymerase ribozyme fitness (log ratio)": -1.06}, {"variant": "A47G G59C U61A G92C G141A U148C", "polymerase ribozyme fitness (log ratio)": "≤ -4.2"}, {"variant": "A47C U151G G152A", "polymerase ribozyme fitness (log ratio)": -4.19}, {"variant": "G46C C93U", "polymerase ribozyme fitness (log ratio)": -2.47}, {"variant": "G46A A52G G86U A91G A98U C114G", "polymerase ribozyme fitness (log ratio)": "≤ -4.2"}, {"variant": "U45G C114U A119U", "polymerase ribozyme fitness (log ratio)": -2.4}, {"variant": "A47C C63A G83A", "polymerase ribozyme fitness (log ratio)": -1.37}, {"variant": "A47G G62U A142G U146G", "polymerase ribozyme fitness (log ratio)": -4.12}, {"variant": "G46U A91C C105U C114U U146G", "polymerase ribozyme fitness (log ratio)": "≤ -4.2"}, {"variant": "G46C G50C G59U C118U G126C", "polymerase ribozyme fitness (log ratio)": "≤ -4.2"}, {"variant": "G46A G74C", "polymerase ribozyme fitness (log ratio)": "≤ -4.2"}, {"variant": "A47U C57U", "polymerase ribozyme fitness (log ratio)": 0.131}, {"variant": "A47C C57G G58C", "polymerase ribozyme fitness (log ratio)": 0.275}, {"variant": "G46C G74C C87A", "polymerase ribozyme fitness (log ratio)": "≤ -4.2"}, {"variant": "A47C C51U U53A C54A G141U", "polymerase ribozyme fitness (log ratio)": -4.13}, {"variant": "A47G C93A C131U U134C", "polymerase ribozyme fitness (log ratio)": -0.603}, {"variant": "G46A U56A U82C C93A A107G C125U G136U", "polymerase ribozyme fitness (log ratio)": "≤ -4.2"}, {"variant": "A47G U82G C95G", "polymerase ribozyme fitness (log ratio)": -3.89}, {"variant": "A47G C69A A122G", "polymerase ribozyme fitness (log ratio)": -3.43}, {"variant": "A47C U61A", "polymerase ribozyme fitness (log ratio)": -3.21}, {"variant": "A47G C85G U90C G124U", "polymerase ribozyme fitness (log ratio)": "≤ -4.2"}, {"variant": "A47G A147U", "polymerase ribozyme fitness (log ratio)": 0.466}, {"variant": "A47U A49C C51U C93A", "polymerase ribozyme fitness (log ratio)": "≤ -4.2"}, {"variant": "G46A A52C U139G", "polymerase ribozyme fitness (log ratio)": -3.91}, {"variant": "A47C C85G C96U C125U", "polymerase ribozyme fitness (log ratio)": "≤ -4.2"}, {"variant": "G46A G70U C85G", "polymerase ribozyme fitness (log ratio)": "≤ -4.2"}, {"variant": "G46A A52C U61G", "polymerase ribozyme fitness (log ratio)": -0.687}, {"variant": "A47G C87U U101C", "polymerase ribozyme fitness (log ratio)": 0.535}, {"variant": "A47G G68A C72U G81A A89G U148A", "polymerase ribozyme fitness (log ratio)": "≤ -4.2"}, {"variant": "G46U C85A", "polymerase ribozyme fitness (log ratio)": -2.02}, {"variant": "A47C G83A C118U G133C U148C", "polymerase ribozyme fitness (log ratio)": "≤ -4.2"}, {"variant": "G46C U90A", "polymerase ribozyme fitness (log ratio)": "≤ -4.2"}, {"variant": "G46A C85A C87U C99A", "polymerase ribozyme fitness (log ratio)": "≤ -4.2"}, {"variant": "G46A U55A C63U U111C C125A", "polymerase ribozyme fitness (log ratio)": "≤ -4.2"}, {"variant": "A47U C93G", "polymerase ribozyme fitness (log ratio)": -3.23}, {"variant": "U45G C93A C116U", "polymerase ribozyme fitness (log ratio)": -2.88}, {"variant": "A47C A150U", "polymerase ribozyme fitness (log ratio)": -0.247}, {"variant": "U45G U53A C85U", "polymerase ribozyme fitness (log ratio)": -1.63}, {"variant": "A47U C95U A115G", "polymerase ribozyme fitness (log ratio)": -2.68}, {"variant": "A47C C57A C105A G126A", "polymerase ribozyme fitness (log ratio)": -3.51}, {"variant": "G46C C57U U61G C75G A119U G141A", "polymerase ribozyme fitness (log ratio)": "≤ -4.2"}, {"variant": "G46A C96U U134G A138G", "polymerase ribozyme fitness (log ratio)": "≤ -4.2"}, {"variant": "A47C C57A", "polymerase ribozyme fitness (log ratio)": -0.176}, {"variant": "A47C G68A C96G C99A", "polymerase ribozyme fitness (log ratio)": "≤ -4.2"}, {"variant": "A47U C51U C87U A113U G152A", "polymerase ribozyme fitness (log ratio)": -3.99}, {"variant": "G46A C96U", "polymerase ribozyme fitness (log ratio)": 0.0159}, {"variant": "G46A G86C C118U A122U", "polymerase ribozyme fitness (log ratio)": -3.45}, {"variant": "A47U C95U", "polymerase ribozyme fitness (log ratio)": -0.679}, {"variant": "A47C U53A C85G U139A", "polymerase ribozyme fitness (log ratio)": "≤ -4.2"}, {"variant": "A47C U56C G68A C125U", "polymerase ribozyme fitness (log ratio)": -4.09}, {"variant": "U45G A52U U55A A73U C85U G117A C149A", "polymerase ribozyme fitness (log ratio)": "≤ -4.2"}, {"variant": "G46A G83A", "polymerase ribozyme fitness (log ratio)": -0.911}, {"variant": "G46C U61A C63U U82A A122G", "polymerase ribozyme fitness (log ratio)": "≤ -4.2"}, {"variant": "G46A G143C", "polymerase ribozyme fitness (log ratio)": -3.81}, {"variant": "G46C A52G A137G", "polymerase ribozyme fitness (log ratio)": -2.44}, {"variant": "A47C U55A C87G A91G A150G", "polymerase ribozyme fitness (log ratio)": "≤ -4.2"}, {"variant": "A47G U55A C79G C93U", "polymerase ribozyme fitness (log ratio)": "≤ -4.2"}, {"variant": "A47G C54A", "polymerase ribozyme fitness (log ratio)": -1.65}, {"variant": "A47G U90C G92C G128U A137C A147C", "polymerase ribozyme fitness (log ratio)": "≤ -4.2"}, {"variant": "A47U C114U", "polymerase ribozyme fitness (log ratio)": -1.72}, {"variant": "A47U A49G A98G U101A", "polymerase ribozyme fitness (log ratio)": "≤ -4.2"}, {"variant": "G46U A120C", "polymerase ribozyme fitness (log ratio)": -0.32}, {"variant": "U45G G50A C87A C103U G124A", "polymerase ribozyme fitness (log ratio)": "≤ -4.2"}, {"variant": "A47U A52G U144G", "polymerase ribozyme fitness (log ratio)": 0.507}, {"variant": "A47U C87U A91U C95U C114G A120C", "polymerase ribozyme fitness (log ratio)": "≤ -4.2"}, {"variant": "G46U G83U A119U C123A U145C", "polymerase ribozyme fitness (log ratio)": -3.34}, {"variant": "A47U C54U U56A G84C C99A C108U C114U G126U", "polymerase ribozyme fitness (log ratio)": "≤ -4.2"}, {"variant": "U45G C85G C93U", "polymerase ribozyme fitness (log ratio)": "≤ -4.2"}, {"variant": "G46U G83A G143C", "polymerase ribozyme fitness (log ratio)": -4.16}, {"variant": "G46U G62A C76A C87U G88A C118U U134A", "polymerase ribozyme fitness (log ratio)": "≤ -4.2"}, {"variant": "G46C A64G A91C", "polymerase ribozyme fitness (log ratio)": "≤ -4.2"}, {"variant": "A47G G62U U145C U151A", "polymerase ribozyme fitness (log ratio)": "≤ -4.2"}, {"variant": "G46C C76U U102C C116U A137C", "polymerase ribozyme fitness (log ratio)": "≤ -4.2"}, {"variant": "G46A C54A G94C G117A A122U G124A", "polymerase ribozyme fitness (log ratio)": -3.11}, {"variant": "A47C U82G A142C", "polymerase ribozyme fitness (log ratio)": -2.54}, {"variant": "G46C G48A A73U U77C G80U C87U", "polymerase ribozyme fitness (log ratio)": -3.85}, {"variant": "A47G U61G A142G", "polymerase ribozyme fitness (log ratio)": -2.82}, {"variant": "U45G C87U U111G A147C", "polymerase ribozyme fitness (log ratio)": "≤ -4.2"}, {"variant": "G46C A49U U56A G86A C87A C103G A147U", "polymerase ribozyme fitness (log ratio)": "≤ -4.2"}, {"variant": "A47C G50A U53G C69G U77A C85A C103G A113G G136C", "polymerase ribozyme fitness (log ratio)": "≤ -4.2"}]}]}
